Substitutions are numbered along the chain they refer to.
Key:
[1] = target: PSMA on PC3pip cells (UniProt Q04609 1-750, limits assumed); test: cell-based or functional assay
[2] = target: T1, PSMA (commercial, Sino Bio cat #15877-H07H) (UniProt Q04609 44-750); test: SDS-PAGE, 37C, ~8:1 sdAb:PSMA
T1 construct: also called receptor

[3] = target: T2, PSMA on LNCaP cells (human, UniProt Q04609 1-750); test: flow cytometry on LNCaP cells
T2 construct: whole, on cells; also called LNCaP (PSMA+)

[4] = target: T2, PSMA on LNCaP cells; test: western blot, LNCaP cells, 0.1 nM, 1 h
[5] = target: T2, PSMA on LNCaP cells; test: western blot, LNCaP cells, 0.1 nM, 6 h
[6] = target: T2, PSMA on LNCaP cells; test: western blot, LNCaP cells, 1.0 nM, 1 h
[7] = target: T2, PSMA on LNCaP cells; test: western blot, LNCaP cells, 1.0 nM, 6 h
[8] = target: T2, PSMA on LNCaP cells; test: western blot, LNCaP cells, 10.0 nM, 1 h
[9] = target: T2, PSMA on LNCaP cells; test: western blot, LNCaP cells, 10.0 nM, 6 h
[10] = target: T2, PSMA on LNCaP cells; test: western blot, LNCaP cells, 100.0 nM, 1 h
[11] = target: T2, PSMA on LNCaP cells; test: western blot, LNCaP cells, 100.0 nM, 6 h
[12] = target: T2, PSMA on LNCaP cells; test: western blot, LNCaP cells, 1000.0 nM, 1 h
[13] = target: T2, PSMA on LNCaP cells; test: western blot, LNCaP cells, 1000.0 nM, 6 h
[14] = target: T1, PSMA (commercial, Sino Bio cat …); test: SDS-PAGE, overnight 37C, ~7:1 sdAb:PSMA
[15] = target: T1, PSMA (commercial, Sino Bio cat …); test: SDS-PAGE, lysate + PSMA, 3 h 37C

T1 sequence (Q04609 44-750 limits assumed): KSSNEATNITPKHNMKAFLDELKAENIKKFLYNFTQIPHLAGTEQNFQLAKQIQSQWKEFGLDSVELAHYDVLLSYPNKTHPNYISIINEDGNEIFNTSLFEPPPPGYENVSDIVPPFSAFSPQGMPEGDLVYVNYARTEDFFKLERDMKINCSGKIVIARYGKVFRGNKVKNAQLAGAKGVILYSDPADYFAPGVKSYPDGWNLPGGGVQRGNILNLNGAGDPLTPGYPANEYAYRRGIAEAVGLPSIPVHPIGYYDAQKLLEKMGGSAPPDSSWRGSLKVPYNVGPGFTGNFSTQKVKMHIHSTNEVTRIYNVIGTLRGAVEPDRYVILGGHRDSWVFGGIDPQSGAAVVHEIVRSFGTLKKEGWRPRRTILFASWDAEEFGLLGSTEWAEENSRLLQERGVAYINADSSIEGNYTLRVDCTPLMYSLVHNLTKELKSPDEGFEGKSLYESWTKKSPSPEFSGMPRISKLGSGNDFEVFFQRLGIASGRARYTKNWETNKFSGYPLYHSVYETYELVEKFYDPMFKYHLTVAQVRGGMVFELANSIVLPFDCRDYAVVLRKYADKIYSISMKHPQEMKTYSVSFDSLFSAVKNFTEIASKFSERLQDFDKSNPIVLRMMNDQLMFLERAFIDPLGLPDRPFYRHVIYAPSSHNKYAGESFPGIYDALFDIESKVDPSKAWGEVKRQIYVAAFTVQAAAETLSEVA
T2 sequence (Q04609 whole entry): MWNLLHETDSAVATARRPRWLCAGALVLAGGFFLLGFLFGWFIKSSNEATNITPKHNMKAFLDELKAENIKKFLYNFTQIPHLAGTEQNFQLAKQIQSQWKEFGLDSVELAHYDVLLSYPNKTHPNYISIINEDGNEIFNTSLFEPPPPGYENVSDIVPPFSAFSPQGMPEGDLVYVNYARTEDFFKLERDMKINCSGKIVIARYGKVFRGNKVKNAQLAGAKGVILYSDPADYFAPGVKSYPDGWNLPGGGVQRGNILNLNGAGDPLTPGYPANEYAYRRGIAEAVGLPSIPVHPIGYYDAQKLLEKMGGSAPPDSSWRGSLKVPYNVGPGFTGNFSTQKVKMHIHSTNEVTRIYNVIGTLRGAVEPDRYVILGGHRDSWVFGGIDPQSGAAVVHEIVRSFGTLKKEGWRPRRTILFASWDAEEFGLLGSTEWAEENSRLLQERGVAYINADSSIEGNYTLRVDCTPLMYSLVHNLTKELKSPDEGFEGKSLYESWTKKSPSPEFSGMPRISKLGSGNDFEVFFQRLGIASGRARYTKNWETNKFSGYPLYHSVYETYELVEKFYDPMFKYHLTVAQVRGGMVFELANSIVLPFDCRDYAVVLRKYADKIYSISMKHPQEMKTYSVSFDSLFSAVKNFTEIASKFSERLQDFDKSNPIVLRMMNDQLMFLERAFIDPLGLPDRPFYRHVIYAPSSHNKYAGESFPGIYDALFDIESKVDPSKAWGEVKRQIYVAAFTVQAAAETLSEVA
Sequence of PSMA on PC3pip cells (Q04609 whole entry): as above

B1: C26-54TYR (VHH)
VHH: EVQLVESGGGLVQPGGSLTLSCAASRFMISEYSMHWVRQAPGKGLEWVSTINPYGTTDYAESVKGRFTISRDNAKNTLYLQMNSLKPEDTAVYYCDGYGYRGQGTQVTVSS
modifications: MC-PEG8-VC-PABC-MMAE on the C-terminal Cys (DAR 1)
[1]
  IC50 PC3pip (M), cell viability by CellTiter-Glo after 4 days: 3.36e-09 M

B2: C2-56FSY (VHH)
VHH: B1 VHH with Y54A, T56X
modifications: not fully specified; FSY at 56
notes: plus C-terminal His6
[2]
  crosslinking efficiency: < 50%

B3: C2-58FSY (VHH)
VHH: B1 VHH with Y54A, D58X
modifications: not fully specified; FSY at 58
notes: plus C-terminal His6
[2]
  crosslinking efficiency: > 50%

B4: C2-100FSY (VHH)
VHH: B1 VHH with Y54A, Y100X
modifications: not fully specified; FSY at 100
notes: plus C-terminal His6
[2]
  crosslinking efficiency: < 50%

B5: C2-50FSY (VHH)
VHH: B1 VHH with T50X, Y54A
modifications: not fully specified; FSY at 50
notes: plus C-terminal His6
[2]
  crosslinking efficiency: > 50%

B6: C2-53FSY (VHH)
VHH: B1 VHH with P53X, Y54A
modifications: not fully specified; FSY at 53
notes: plus C-terminal His6
[2]
  crosslinking efficiency: > 50%

B7: C34-TYR (bispecific antibody)
chain: EVQLVESGGGLVQPGGSLTLSCAASRFMISEYSMHWVRQAPGKGLEWVSTINPYGTTDYAESVKGRFTISRDNAKNTLYLQMNSLKPEDTAVYYCDGYGYRGQGTQVTVSSGGGGSGGGGSGGGGSQVQLQESGGGSVEAGGSLRLSCARSGWPYSTYSMNWFRQAPGKEREAVAGISSTMSGIIFAESKAGQFTISQDNAKNTVYLQMNNLKPEDTAIYYCAARRYFSLSSSSDDFDYWGQGTQVTVSSAAAYPYDVPDYGSLPETGGSPSTPPTPSPSTPP
notes: Biparatopic tandem of two anti-PSMA VHH
[3]
  EC50: 2.3 nM

B8: C34-FSY (bispecific antibody)
chain: B7 chain with Y227X
modifications: FSY at the X of the entry (101 of the C24 part)
notes: as for B7
[4]
  Crosslinked PSMA (Total PSMA %): 0%
[5]
  Crosslinked PSMA (Total PSMA %): 3.2%
[6]
  Crosslinked PSMA (Total PSMA %): 14.8%
[7]
  Crosslinked PSMA (Total PSMA %): 21.5%
[8]
  Crosslinked PSMA (Total PSMA %): 56.9%
[9]
  Crosslinked PSMA (Total PSMA %): 78.7%
[10]
  Crosslinked PSMA (Total PSMA %): 63.3%
[11]
  Crosslinked PSMA (Total PSMA %): 87.1%
[12]
  Crosslinked PSMA (Total PSMA %): 70.4%
[13]
  Crosslinked PSMA (Total PSMA %): 89.9%

B9: C1-26FSY (VHH)
VHH: QVQLQESGGGSVQAGGSLRLSCTAPXYTDSNYYMSWFRQAPGKEREWVAGVNTGRGSTSYADSVKGRFTISQDNAKNTMFLQMNSLKPEDTAIYYCAVAACHFCDSLPKTQDEYILWGQGTQVTVSS
modifications: not fully specified; FSY at 26
notes: plus C-terminal His6
[14]
  crosslinking efficiency: < 50%

B10: C1-99FSY (VHH)
VHH: B9 VHH with X26G, A99X
modifications: not fully specified; FSY at 99
notes: plus C-terminal His6
[14]
  crosslinking efficiency: < 50%

B11: C1-111FSY (VHH)
VHH: B9 VHH with X26G, Q111X
modifications: not fully specified; FSY at 111
notes: plus C-terminal His6
[14]
  crosslinking efficiency: < 50%

B12: C1-108FSY (VHH)
VHH: B9 VHH with X26G, P108X
modifications: not fully specified; FSY at 108
notes: plus C-terminal His6
[14]
  crosslinking efficiency: < 50%

B13: C1-115FSY (VHH)
VHH: B9 VHH with X26G, I115X
modifications: not fully specified; FSY at 115
notes: plus C-terminal His6
[14]
  crosslinking efficiency: < 50%

B14: C1-110FSY (VHH)
VHH: B9 VHH with X26G, T110X
modifications: not fully specified; FSY at 110
notes: plus C-terminal His6
[14]
  crosslinking efficiency: < 50%

B15: C1-105FSY (VHH)
VHH: B9 VHH with X26G, D105X
modifications: not fully specified; FSY at 105
notes: plus C-terminal His6
[14]
  crosslinking efficiency: < 50%

B16: C1-29FSY (VHH)
VHH: B9 VHH with X26G, D29X
modifications: not fully specified; FSY at 29
notes: plus C-terminal His6
[14]
  crosslinking efficiency: > 50%

B17: C1-30FSY (VHH)
VHH: B9 VHH with X26G, S30X
modifications: not fully specified; FSY at 30
notes: plus C-terminal His6
[14]
  crosslinking efficiency: > 50%

B18: C1-103FSY (VHH)
VHH: B9 VHH with X26G, F103X
modifications: not fully specified; FSY at 103
notes: plus C-terminal His6
[14]
  crosslinking efficiency: < 50%

B19: C1-114FSY (VHH)
VHH: B9 VHH with X26G, Y114X
modifications: not fully specified; FSY at 114
notes: plus C-terminal His6
[14]
  crosslinking efficiency: < 50%

B20: C28-101TYR (VHH)
VHH: QVQLQESGGGSVEAGGSLRLSCARSGWPYSTYSMNWFRQAPGKEREAVAGISSTMSGIIFAESKAGQFTISQDNAKNTVYLQMNNLKPEDTAIYYCAARRYFSLSSSSDDFDYWGQGTQVTVSS
modifications: MC-PEG8-VC-PABC-MMAE on the C-terminal Cys
[1]
  IC50 PC3pip (M), cell viability by CellTiter-Glo after 4 days: 8.47e-08 M

B21: C3-58FSY (VHH)
VHH: B20 VHH with I58X, Y101D, F102Y
modifications: not fully specified; FSY at 58
notes: plus C-terminal His6; tested as cell lysate
[15]
  crosslinking efficiency: > 50%

B22: C3-101FSY (VHH)
VHH: B20 VHH with Y101X, F102Y
modifications: not fully specified; FSY at 101
notes: plus C-terminal His6
[15]
  crosslinking efficiency: < 50%

B23: C3-103FSY (VHH)
VHH: B20 VHH with Y101D, F102Y, S103X
modifications: not fully specified; FSY at 103
notes: as for B21
[15]
  crosslinking efficiency: < 50%

B24: C3-107FSY (VHH)
VHH: B20 VHH with Y101D, F102Y, S107X
modifications: not fully specified; FSY at 107
notes: as for B21
[15]
  crosslinking efficiency: < 50%

B25: C24-101TYR (VHH)
VHH: B20 VHH
[3]
  EC50: > 500 nM

B26: C3-62FSY (VHH)
VHH: B20 VHH with E62X, Y101D, F102Y
modifications: not fully specified; FSY at 62
notes: as for B21
[15]
  crosslinking efficiency: > 50%

B27: C24-101FSY (VHH)
VHH: B20 VHH with Y101X
modifications: FSY at 101 (X of the entry)
notes: also called C24-FSY
[4]
  Crosslinked PSMA (Total PSMA %): 0%
[5]
  Crosslinked PSMA (Total PSMA %): 0%
[6]
  Crosslinked PSMA (Total PSMA %): 0%
[7]
  Crosslinked PSMA (Total PSMA %): 2.4%
[8]
  Crosslinked PSMA (Total PSMA %): 4.6%
[9]
  Crosslinked PSMA (Total PSMA %): 28.4%
[10]
  Crosslinked PSMA (Total PSMA %): 28.5%
[11]
  Crosslinked PSMA (Total PSMA %): 71%
[12]
  Crosslinked PSMA (Total PSMA %): 41.4%
[13]
  Crosslinked PSMA (Total PSMA %): 75.8%

B28: C35-TYR (bispecific antibody)
chain: QVQLQESGGGSVEAGGSLRLSCARSGWPYSTYSMNWFRQAPGKEREAVAGISSTMSGIIFAESKAGQFTISQDNAKNTVYLQMNNLKPEDTAIYYCAARRYFSLSSSSDDFDYWGQGTQVTVSSGGGGSGGGGSGGGGSQVQLQESGGGSVEAGGSLRLSCARSGWPYSTYSMNWFRQAPGKEREAVAGISSTMSGIIFAESKAGQFTISQDNAKNTVYLQMNNLKPEDTAIYYCAARRYFSLSSSSDDFDYWGQGTQVTVSSAAAYPYDVPDYGSLPETGGSPSTPPTPSPSTPP
notes: Tandem of two copies of the same VHH
[3]
  EC50: 12.3 nM

B29: C36-FSY (bispecific antibody)
chain: B28 chain with Y101X, Y240X
modifications: FSY at both X of the entry (101 of each C24 part)
notes: as for B28
[4]
  Crosslinked PSMA (Total PSMA %): 3.8%
[5]
  Crosslinked PSMA (Total PSMA %): 2.8%
[6]
  Crosslinked PSMA (Total PSMA %): 13.8%
[7]
  Crosslinked PSMA (Total PSMA %): 23.7%
[8]
  Crosslinked PSMA (Total PSMA %): 58.7%
[9]
  Crosslinked PSMA (Total PSMA %): 74.2%
[10]
  Crosslinked PSMA (Total PSMA %): 82.7%
[11]
  Crosslinked PSMA (Total PSMA %): 87.9%
[12]
  Crosslinked PSMA (Total PSMA %): 90.3%
[13]
  Crosslinked PSMA (Total PSMA %): 92%
